These results are taken from paper PMC6098113, “A 2′FY-RNA Motif Defines an Aptamer for Ebolavirus Secreted Protein”.

Like-named read-outs stand apart in the source and are kept apart here.

In series [1] the target is T1, EBOV sGP (soluble glycoprotein) (Zaire ebolavirus (EBOV), UniProt P60170 33-324). The note with it: protein: recombinant; tags: 6xHis; chain copies: 2.
The target in series [2] is T1, EBOV sGP (soluble glycoprotein). Briefly: filter binding. The note with it: protein: recombinant, tags: 6xHis, chain copies: 2.
Series [3] has the same target. Briefly: filter binding; 50 and 500 nM sGP; better than 5183. Particulars: protein: recombinant; tags: 6xHis; chain copies: 2; label: 32P; central bulge of 5183 removed.
For series [4] the target is unchanged. Briefly: filter binding; monomer basis. Particulars: protein: recombinant; tags: 6xHis; chain copies: 2; label: 32P; hairpins (Mfold).
The target in the next series is Human serum albumin (Homo sapiens (Human), UniProt P02768 25-609). Briefly: filter; PBS + 5 mM MgCl2 pH 7.4. Particulars: label: 32P.
Sequence of Human serum albumin (P02768 25-609): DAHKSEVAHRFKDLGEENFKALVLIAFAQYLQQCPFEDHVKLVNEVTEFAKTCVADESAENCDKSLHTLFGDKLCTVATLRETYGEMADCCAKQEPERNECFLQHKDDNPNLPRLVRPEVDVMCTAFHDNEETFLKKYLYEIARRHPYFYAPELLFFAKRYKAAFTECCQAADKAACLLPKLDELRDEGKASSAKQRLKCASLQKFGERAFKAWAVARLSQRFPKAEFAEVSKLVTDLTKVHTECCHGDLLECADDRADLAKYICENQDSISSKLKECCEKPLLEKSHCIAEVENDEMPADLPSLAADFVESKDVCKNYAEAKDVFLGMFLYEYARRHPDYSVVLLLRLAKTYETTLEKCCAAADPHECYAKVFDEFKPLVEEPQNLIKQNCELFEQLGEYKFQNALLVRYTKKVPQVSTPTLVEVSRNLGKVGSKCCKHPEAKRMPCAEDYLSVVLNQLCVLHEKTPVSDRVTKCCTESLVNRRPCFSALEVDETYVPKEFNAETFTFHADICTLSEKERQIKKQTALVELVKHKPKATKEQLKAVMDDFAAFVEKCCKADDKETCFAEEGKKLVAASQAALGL
The target of series [5] is T1, EBOV sGP (soluble glycoprotein). Briefly: filter binding; up to 800 nM sGP. Particulars: protein: recombinant; tags: 6xHis; chain copies: 2; label: 32P; hairpins (Mfold).
Series [6] has the same target. Briefly: filter binding; 50 and 500 nM sGP. The note with it: protein: recombinant; tags: 6xHis; chain copies: 2; label: 32P; 3' stem loop of 5183.
The target of another series is T2, alpha2-macroglobulin (UniProt P01023 24-1474).
T2 sequence: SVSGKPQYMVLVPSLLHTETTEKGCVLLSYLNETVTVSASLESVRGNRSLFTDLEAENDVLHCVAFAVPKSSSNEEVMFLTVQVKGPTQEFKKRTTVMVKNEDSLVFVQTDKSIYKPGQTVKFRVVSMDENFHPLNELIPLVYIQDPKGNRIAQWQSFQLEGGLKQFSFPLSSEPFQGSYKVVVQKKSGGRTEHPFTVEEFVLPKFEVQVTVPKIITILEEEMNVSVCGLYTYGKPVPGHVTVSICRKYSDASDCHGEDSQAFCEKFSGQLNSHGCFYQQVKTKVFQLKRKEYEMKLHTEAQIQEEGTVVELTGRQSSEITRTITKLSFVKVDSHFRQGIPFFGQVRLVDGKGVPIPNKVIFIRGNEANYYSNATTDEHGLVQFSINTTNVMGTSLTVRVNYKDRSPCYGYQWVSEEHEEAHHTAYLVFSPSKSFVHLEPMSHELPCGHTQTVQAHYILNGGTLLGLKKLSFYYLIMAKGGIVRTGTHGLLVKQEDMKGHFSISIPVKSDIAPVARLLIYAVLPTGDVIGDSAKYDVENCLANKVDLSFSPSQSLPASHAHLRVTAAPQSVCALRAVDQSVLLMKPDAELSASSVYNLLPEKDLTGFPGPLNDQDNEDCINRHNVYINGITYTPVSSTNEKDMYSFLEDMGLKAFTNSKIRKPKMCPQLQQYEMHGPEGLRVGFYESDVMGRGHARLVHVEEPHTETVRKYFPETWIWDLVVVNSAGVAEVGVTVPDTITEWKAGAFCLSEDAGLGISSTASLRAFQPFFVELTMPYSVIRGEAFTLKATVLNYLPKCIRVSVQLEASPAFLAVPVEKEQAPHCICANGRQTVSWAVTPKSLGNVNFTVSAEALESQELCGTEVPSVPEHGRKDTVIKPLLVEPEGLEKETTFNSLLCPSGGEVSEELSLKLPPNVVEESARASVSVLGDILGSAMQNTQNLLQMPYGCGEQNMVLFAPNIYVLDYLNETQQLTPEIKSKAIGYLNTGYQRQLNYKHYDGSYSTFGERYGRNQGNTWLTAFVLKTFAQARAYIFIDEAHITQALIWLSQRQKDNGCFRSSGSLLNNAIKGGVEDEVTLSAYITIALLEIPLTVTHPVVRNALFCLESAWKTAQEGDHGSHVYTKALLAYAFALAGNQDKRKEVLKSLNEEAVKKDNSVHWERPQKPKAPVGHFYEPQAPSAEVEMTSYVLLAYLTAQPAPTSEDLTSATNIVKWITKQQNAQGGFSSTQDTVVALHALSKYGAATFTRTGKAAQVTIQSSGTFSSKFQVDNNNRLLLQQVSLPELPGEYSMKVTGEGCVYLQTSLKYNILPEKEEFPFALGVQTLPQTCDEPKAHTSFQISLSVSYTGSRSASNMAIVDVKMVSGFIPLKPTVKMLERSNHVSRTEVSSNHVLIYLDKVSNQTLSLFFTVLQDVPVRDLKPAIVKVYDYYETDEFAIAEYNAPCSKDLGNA
Briefly: filter binding; 205 nM to 5 uM alpha2-macroglobulin; Buffer A: 137 mM NaCl, 2.7 mM KCl, 10 mM Na2HPO4, 2 mM KH2PO4, 5 mM MgCl2, pH 7.4, RT (23-24 C), 30 min. The note with it: protein: commercial; label: 32P; hairpin.

A further series has as its target T3, SUDV sGP (Sudan virus (SUDV), UniProt Q7T9E0 33-324).
T3 sequence: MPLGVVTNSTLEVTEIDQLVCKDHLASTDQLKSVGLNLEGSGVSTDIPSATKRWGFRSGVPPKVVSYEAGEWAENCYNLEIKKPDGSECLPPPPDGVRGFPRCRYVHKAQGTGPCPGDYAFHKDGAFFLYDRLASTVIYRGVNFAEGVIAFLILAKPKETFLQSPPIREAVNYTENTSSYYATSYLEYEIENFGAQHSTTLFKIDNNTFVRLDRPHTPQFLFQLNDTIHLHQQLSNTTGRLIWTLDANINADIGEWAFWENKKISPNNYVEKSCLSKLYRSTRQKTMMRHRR
Briefly: filter binding; monomer basis. The note with it: protein: commercial; chain copies: 2; label: 32P; hairpin.

In series [7] the target is T1, EBOV sGP (soluble glycoprotein). Briefly: filter binding; monomer basis; Fig S8 legend uses 50 nM. The note with it: protein: recombinant; tags: 6xHis; chain copies: 2; label: 32P; hairpin.
The next series addresses fibrinogen (UniProt P02671;P02675;P02679 20-866;31-491;27-453). The series can be described thus: filter binding; 250 nM to 4 uM fibrinogen; Buffer A: 137 mM NaCl, 2.7 mM KCl, 10 mM Na2HPO4, 2 mM KH2PO4, 5 mM MgCl2, pH 7.4, RT (23-24 C), 30 min. The note with it: protein: commercial; chain copies: 2;2;2; label: 32P; hairpin.
Series [8] addresses T1, EBOV sGP (soluble glycoprotein). The series can be described thus: competition; 100-fold excess competes with 39SGP1A. Particulars: protein: recombinant; tags: 6xHis; chain copies: 2; label: 32P (direct); hairpins (Mfold).

T1 sequence (P60170 33-324): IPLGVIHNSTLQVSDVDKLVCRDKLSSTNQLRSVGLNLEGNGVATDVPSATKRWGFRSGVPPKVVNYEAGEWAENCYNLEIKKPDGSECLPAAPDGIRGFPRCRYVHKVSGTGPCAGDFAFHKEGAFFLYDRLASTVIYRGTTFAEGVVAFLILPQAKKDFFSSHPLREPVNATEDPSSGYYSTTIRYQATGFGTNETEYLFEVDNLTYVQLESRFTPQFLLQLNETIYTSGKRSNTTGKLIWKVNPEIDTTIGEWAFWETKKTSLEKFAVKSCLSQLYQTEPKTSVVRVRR
Sequence of fibrinogen (P02671 20-866, chain 1 of 3): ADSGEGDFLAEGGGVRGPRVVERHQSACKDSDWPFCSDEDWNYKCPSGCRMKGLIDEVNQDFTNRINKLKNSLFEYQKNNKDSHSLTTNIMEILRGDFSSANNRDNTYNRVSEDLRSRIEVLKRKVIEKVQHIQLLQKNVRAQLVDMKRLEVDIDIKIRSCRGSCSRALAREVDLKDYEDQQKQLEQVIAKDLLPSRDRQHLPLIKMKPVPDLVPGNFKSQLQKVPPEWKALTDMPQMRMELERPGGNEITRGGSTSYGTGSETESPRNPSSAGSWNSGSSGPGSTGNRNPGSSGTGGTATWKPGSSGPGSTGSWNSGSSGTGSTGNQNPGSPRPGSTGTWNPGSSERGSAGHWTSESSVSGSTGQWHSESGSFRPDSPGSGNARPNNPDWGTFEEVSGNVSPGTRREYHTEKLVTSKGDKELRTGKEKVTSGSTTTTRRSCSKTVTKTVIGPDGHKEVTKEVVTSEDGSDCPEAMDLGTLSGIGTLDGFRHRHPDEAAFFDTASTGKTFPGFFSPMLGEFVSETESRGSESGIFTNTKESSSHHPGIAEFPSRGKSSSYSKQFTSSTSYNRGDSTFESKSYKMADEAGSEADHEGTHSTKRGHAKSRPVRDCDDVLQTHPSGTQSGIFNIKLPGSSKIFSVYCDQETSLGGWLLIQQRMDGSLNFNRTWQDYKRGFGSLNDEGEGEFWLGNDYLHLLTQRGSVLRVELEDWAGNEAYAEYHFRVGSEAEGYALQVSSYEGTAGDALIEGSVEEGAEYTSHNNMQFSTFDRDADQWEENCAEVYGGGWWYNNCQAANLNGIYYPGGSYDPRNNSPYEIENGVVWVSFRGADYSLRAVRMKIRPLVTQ
Sequence of fibrinogen (P02675 31-491, chain 2 of 3): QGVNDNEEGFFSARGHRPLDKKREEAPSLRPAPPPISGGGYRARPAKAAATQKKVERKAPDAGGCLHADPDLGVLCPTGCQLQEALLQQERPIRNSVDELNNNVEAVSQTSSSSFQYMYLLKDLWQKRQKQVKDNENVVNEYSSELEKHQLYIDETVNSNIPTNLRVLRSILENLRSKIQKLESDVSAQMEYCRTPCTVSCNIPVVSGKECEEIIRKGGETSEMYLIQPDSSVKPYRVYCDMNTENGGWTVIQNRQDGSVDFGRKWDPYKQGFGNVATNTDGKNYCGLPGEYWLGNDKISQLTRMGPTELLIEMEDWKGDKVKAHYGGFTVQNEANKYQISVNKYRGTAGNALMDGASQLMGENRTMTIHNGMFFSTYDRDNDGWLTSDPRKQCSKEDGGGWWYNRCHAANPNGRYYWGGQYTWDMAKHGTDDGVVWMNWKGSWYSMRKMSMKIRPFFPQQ
Sequence of fibrinogen (P02679 27-453, chain 3 of 3): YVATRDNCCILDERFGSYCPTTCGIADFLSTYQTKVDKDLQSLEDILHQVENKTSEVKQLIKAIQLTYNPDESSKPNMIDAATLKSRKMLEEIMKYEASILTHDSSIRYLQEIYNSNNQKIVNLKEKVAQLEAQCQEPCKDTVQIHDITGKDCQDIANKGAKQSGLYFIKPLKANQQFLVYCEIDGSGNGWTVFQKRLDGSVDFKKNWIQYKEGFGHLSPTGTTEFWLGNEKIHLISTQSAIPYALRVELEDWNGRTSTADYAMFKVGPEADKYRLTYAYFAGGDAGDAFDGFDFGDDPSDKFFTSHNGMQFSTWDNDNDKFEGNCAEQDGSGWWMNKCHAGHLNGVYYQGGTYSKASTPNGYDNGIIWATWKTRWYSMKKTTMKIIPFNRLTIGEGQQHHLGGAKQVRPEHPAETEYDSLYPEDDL

B1: 4797 2'FY-RNA (XNA)
RNA: GGGAGACAAGAAUAAACGCUCAAAGCAACACAACGAGAUUAAACAAUCUAUUGUUAACAUUAAACAACUAGGCCGAUUCGACAGGAGGCUCACAACAGGC
modifications: 2'-F on all C and U
On to B1, for which the Kd in [1] was approximately 0.5 µM.

B2: 5179 2'FY-RNA (XNA)
RNA: GGGAGACAAGAAUAAACGCUCAAUCUUUUUAUUUUACUUUUUGUUGUAGAGCGCUUGUUUCUCUGAGUUGUAGCCAUUCGACAGGAGGCUCACAACAGGC
modifications: 2'-F on all C and U
Consider B2, for which, in [2] (label: 32P (direct)), the Kd was less than 0.1 µM.

B3: 5192 2'FY-RNA (XNA)
RNA: GGGAGACAUAAACGCUCAAUUUUUUAUUGCAUUUUUCUUUGAGCGUCAUUGUGUUUCCUUGAGCACUUCGACAGGAGGCUCACAACAGGC
modifications: 2'-F on all C and U
Take B3: the binding result in series [3] is “binds”.

B4: 5183 2'FY-RNA (XNA)
RNA: GGGAGACAAGAAUAAACGCUCAAUUUUUUAUUGCAUUUUUCUUUGAGCGUCAUUGAUACCCUGUUUCCUUGAGCACUUCGACAGGAGGCUCACAACAGGC
modifications: 2'-F on all C and U; 2'-OH A and G
Consider B4, for which the Kd in series [4] turned out to be 0.054 µM.

B5: 5183 2'OH RNA (structured_RNA)
RNA: B4 RNA
modifications: none (2'-OH)
For B5, the binding result in [2] (label: 32P, hairpins (Mfold)) is given as “no binding”.

B6: 5183 (ssRNA)
RNA: B4 RNA
modifications: 2'-F pyrimidines
B6: the Kd with Human serum albumin was 0.4 µM.

B7: 2'FC-5183 (XNA)
RNA: B4 RNA
modifications: 2'-F on C only; U is 2'-OH
Take B7: in series [5], the binding result is “no binding”.

B8: 5193 2'FY-RNA (XNA)
RNA: GGGAGACAAGAAUGAUACCCUGUUUCCUUGAGCUAUUCGACAGGAGGCUCACAACAGGC
modifications: 2'-F on all C and U
Take B8: the binding result in series [6] is recorded as “no binding”.

As for GGGCGCUCAAUUUUUUAUUGCAUUUUUCUUUGAGCGCCC (XNA, 2'-F on all C and U) [39SGP1A (5199) 2'FY-RNA], the binding result with alpha2-macroglobulin and in the series with fibrinogen was “no binding” throughout. The Kd with SUDV sGP was 0.24 µM; in series [7] it was 0.027 µM. As to GGGCGCUCAAUUUUUUAUUGCAUUUUUCUUUGAGCGCCC (ssRNA, 2'-F pyrimidines) [39SGP1A (5199)], the Kd with Human serum albumin was more than 68 µM.

B9: 4789 2'FY-RNA (XNA)
RNA: GGGAGACAAGAAUAAACGCUCAAACGUAAUGCAGUCUGUGAGCUUCAGCAAGUAAAAUUAGCGCUGACCGACCCUGUUCGACAGGAGGCUCACAACAGGC
modifications: 2'-F on all C and U
Turning to B9, the binding result in [8] is “binds”.

B10: 5189 2'FY-RNA (XNA)
RNA: GGGAGACAAGAAUAAACGCUCAAUUUUUUAUUGCAUUUUUCUUUGAGCGUCAUUGAUACCCUGUUUCCU
modifications: 2'-F on all C and U
B10: the binding result in [2] (label: 32P) was “binds”.

B11: 5182 2'FY-RNA (XNA)
RNA: GGGAGACAAGAAUAAACGCUCAAGUCUUUAUUUUUACACUUUUAUUUUACCUUGAGCUUCUUGACCAACAGUGCGCUUCGACAGGAGGCUCACAACAGGC
modifications: 2'-F on all C and U
Take B11: the Kd in series [2] (label: 32P) is less than 0.1 µM.
